Measurements: patent US20110123544A1 (published 2011)
Like-named read-outs stand apart in the source and are kept apart here. Each block holds one binder with its values, some of them ahead of it.

How the values were obtained:
[1] = target: T1, recombinant human interleukin 12 (p40/p35 heterodimer) (human, UniProt P29460 23-328; P29459 23-219); experiment: BIAcore; unmutated
T1 chain 1: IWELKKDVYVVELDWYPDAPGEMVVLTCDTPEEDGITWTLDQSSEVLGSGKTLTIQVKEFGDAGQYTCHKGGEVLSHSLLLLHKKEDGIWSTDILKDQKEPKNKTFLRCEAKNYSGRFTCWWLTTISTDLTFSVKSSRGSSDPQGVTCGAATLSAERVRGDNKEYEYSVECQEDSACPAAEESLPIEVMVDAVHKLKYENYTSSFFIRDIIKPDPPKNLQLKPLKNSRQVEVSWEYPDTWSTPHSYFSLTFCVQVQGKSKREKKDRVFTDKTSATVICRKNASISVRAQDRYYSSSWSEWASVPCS
T1 chain 2: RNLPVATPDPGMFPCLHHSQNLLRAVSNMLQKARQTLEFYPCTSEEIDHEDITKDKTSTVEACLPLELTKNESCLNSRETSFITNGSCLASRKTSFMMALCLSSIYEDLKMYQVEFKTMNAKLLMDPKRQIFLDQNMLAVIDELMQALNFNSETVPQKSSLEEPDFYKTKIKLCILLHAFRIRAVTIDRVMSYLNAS

[2] = target: T1, recombinant human interleukin 12 …; experiment: BIAcore; unmutated
[3] = target: recombinant rhesus IL-12 (rhesus monkey) (UniProt P48091); experiment: cell-based or functional assay
Cyno IL-12 (PBMC sup) = target: T2, Cyno IL-12 (PBMC sup) (cynomolgus monkey); experiment: cell-based or functional assay
T2 chain 1: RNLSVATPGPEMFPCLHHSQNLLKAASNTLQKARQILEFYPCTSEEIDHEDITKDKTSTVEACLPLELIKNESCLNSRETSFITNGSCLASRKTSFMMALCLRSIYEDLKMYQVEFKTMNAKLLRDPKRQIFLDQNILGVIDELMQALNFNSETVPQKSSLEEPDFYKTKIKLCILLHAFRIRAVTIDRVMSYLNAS
T2 chain 2: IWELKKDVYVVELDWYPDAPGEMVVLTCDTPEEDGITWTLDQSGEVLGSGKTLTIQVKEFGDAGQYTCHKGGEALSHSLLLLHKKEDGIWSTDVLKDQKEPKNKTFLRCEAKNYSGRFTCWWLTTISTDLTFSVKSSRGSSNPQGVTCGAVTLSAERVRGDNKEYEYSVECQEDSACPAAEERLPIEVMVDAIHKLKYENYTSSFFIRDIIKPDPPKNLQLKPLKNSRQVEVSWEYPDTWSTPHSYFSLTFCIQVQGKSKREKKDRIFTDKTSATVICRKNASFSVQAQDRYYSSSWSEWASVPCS

[4] = target: T3, recombinant human IL-12 (rhIL-12) (human, UniProt P29459 23-219; P29460 23-328); experiment: RB assay: inhibition of 125I-hIL-12 binding to IL-12 receptors on PHA blasts
T3 construct: disulfide-linked p35/p40 heterodimer (p70); also called rec. human IL12; IL-12 p70
T3 sequence (looked up) 1: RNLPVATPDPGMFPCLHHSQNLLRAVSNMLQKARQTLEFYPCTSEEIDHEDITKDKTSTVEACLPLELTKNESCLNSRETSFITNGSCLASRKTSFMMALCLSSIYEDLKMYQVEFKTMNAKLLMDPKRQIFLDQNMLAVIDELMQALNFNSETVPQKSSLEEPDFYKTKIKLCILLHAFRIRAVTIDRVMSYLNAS
T3 sequence (looked up) 2: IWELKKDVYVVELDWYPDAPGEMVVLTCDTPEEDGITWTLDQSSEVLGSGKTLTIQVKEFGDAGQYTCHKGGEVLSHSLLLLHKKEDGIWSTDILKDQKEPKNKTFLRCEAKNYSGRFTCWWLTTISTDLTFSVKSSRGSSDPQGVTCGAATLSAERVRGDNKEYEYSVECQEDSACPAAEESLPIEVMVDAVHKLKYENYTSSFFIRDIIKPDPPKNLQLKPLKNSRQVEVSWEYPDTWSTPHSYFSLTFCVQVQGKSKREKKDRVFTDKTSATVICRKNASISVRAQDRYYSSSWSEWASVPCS
Description: PHA blast cells isolated as described above, were washed once and resuspended in binding buffer to a cell density of 2×10⁷ cells/ml. […] The cell pellet was examined for cell bound radioactivity using a gamma counter. […] Incubations were carried out in duplicate.

[5] = target: T3, recombinant human IL-12 (rhIL-12); experiment: BIAcore (SPR) off-rate on IL-12 chip
Excerpt: The system utilizes the optical properties of SPR to detect alterations in protein concentrations within a dextran biosensor matrix. Proteins are covalently bound to the dextran matrix at known concentrations. […] To determine the off rate (koff), on rate (kₒₙ), association rate (Ka) and dissociation rate (Kd) constants, BIAcore kinetic evaluation software (version 2.1) was used.

[6] = target: T3, recombinant human IL-12 (rhIL-12); experiment: cell-based or functional assay
[7] = target: T3, recombinant human IL-12 (rhIL-12); experiment: cell-based or functional assay; remark: listed apart in the source

koff [1]: 0.000151 s⁻¹
B1: Y61 H53 D (peptide)
chain: FIRYDGSNKYYADSVKG

koff [1]: 0.000178 s⁻¹
B2: Y61 H54 G (peptide)
chain: FIRYDGSNKYYADSVKG

koff [2]: 0.000249 s⁻¹
B3: Y61 H31 S (peptide)
chain: FTFSSYGMH

koff [1]: 0.000206 s⁻¹
B4: Y61 H52 R (peptide)
chain: FIRYDGSNKYYADSVKG

IC50 (M), Rhesus IL-12 Purified [3]: 1e-10 M
IC50 (M), Cyno IL-12 PBMC sup (Cyno IL-12 (PBMC sup)): 2.2e-10 M
B5: Y61 IgG (antibody, V domains shown)
VH: QVQLVQSGGGVVQPGRSLRLSCAASGFTFSSYGMHWVRQAPGKGLEWVAFIRYDGSNKYYADSVKGRFTISRDNSKNTLYLQMKSLRAEDTAVYYCKTHGSHDNWGQGTMVTVSS
VL: SYVLTQPPSVSGTPGQRVTISCSGGRSWIGSNTVKWYQQLPGTAPKLLIYGNDQRPSGVPDRFSGSKSGTSASLAITGVQAEDEADYYCQSYDRGTHPALLFGTGTKVTVLG

IC50 [4]: 0.14 nM
koff [5]: 0.00106 s⁻¹
PHA assay IC50 [6]: > 10 nM
B6: Y55 (scFv, V domains shown)
VH: QVQLVQSGGGVVQPGRSLRLSCAASGFTFSSYGMHWVRQAPGKGLEWVAFIRYDGSNKYYADSVKGRFTISRDNSKNTLYLQMKSLRAEDTAVYYCKTHGSHDNWGQGTMVTVSS
VL: SYVLTQPPSVSGTPGQRVTISCSGGRSNIGSNTVKWYQQLPGTAPKLLIYGNDQRPSGVPDRFSGSKSGTSASLAITGVQAEDEADYYCQSYDRGTHFQMYFGTGTKVTVLG

koff [5]: 2.99e-05 s⁻¹
IFN gamma IC50 [6]: 0.02 nM
PHA assay IC50 [6]: 0.06 nM
B7: Y61-L50Y-H31E IgG (antibody, V domains shown)
VH: QVQLVQSGGGVVQPGRSLRLSCAASGFTFSEYGMHWVRQAPGKGLEWVAFIRYDGSNKYYADSVKGRFTISRDNSKNTLYLQMKSLRAEDTAVYYCKTHGSHDNWGQGTMVTVSS
VL: SYVLTQPPSVSGTPGQRVTISCSGGRSWIGSNTVKWYQQLPGTAPKLLIYYNDQRPSGVPDRFSGSKSGTSASLAITGVQAEDEADYYCQSYDRGTHPALLFGTGTKVTVLG

koff [5]: 0.0037 s⁻¹
B8: 99-F8 (scFv, V domains shown)
VH: QVQLVQSGGGVVQPGRSLRLSCAASGFTFSSYGMHWVRQAPGKGLEWVAFIRYDGSNKYYADSVKGRFTISRDNSKNTLYLQMKSLRAEDTAVYYCKTHGSHDNWGQGTMVTVSS
VL: SYVLTQPPSVSGTPGQRVTISCSGGRSNIGSNTVKWYQQLPGTAPKLLIYGNDQRPSGVPDRFSGSKSGTSASLAITGVQAEDEADYYCQSYIRAPQQVFGTGTKVTVLG

IC50 [4]: 3.5 nM
koff [5]: 0.000821 s⁻¹
B9: D9 (scFv, V domains shown)
VH: QVQLVQSGGGVVQPGRSLRLSCAASGFTFSSYGMHWVRQAPGKGLEWVAFIRYDGSNKYYADSVKGRFTISRDNSKNTLYLQMKSLRAEDTAVYYCKTHGSHDNWGQGTMVTVSS
VL: SYVLTQPPSVSGTPGQRVTISCSGGRSNIGSNTVKWYQQLPGTAPKLLIYGNDQRPSGVPDRFSGSKSGTSASLAITGVQAEDEADYYCQSYDRGRLPAQTFGTGTKVTVLG

PHA assay IC50 (M) p70:p40 1:20 [7]: 5e-09 M
PHA assay IC50 (M) p70:p40 1:50 [7]: 4e-09 M
B10: 136-15 (scFv, V domains shown)
VH: QVQLVQSGGGVVQPGRSLRLSCAASGFTFSSYGMHWVRQAPGKGLEWVAFIRYDGSNKYYADSVKGRFTISRDNSKNTLYLQMKSLRAEDTAVYYCKTHGSHDNWGQGTMVTVSS
VL: SYVLTQPPSVSGTPGQRVTISCSGSRSNIGSNTVKWYQQLPGTAPKLLIYGNDQRPSGVPDRFSGSKSGTSASLAITGVQAEDEADYYCQTYDKGFTGSSVFGTGTKVTVLG

koff [5]: 4.64e-05 s⁻¹
IFN gamma IC50 [6]: 0.01 nM
PHA assay IC50 [6]: 0.01 nM
B11: Y61-L50Y-H31E-L94Y IgG (antibody, V domains shown)
VH: QVQLVQSGGGVVQPGRSLRLSCAASGFTFSEYGMHWVRQAPGKGLEWVAFIRYDGSNKYYADSVKGRFTISRDNSKNTLYLQMKSLRAEDTAVYYCKTHGSHDNWGQGTMVTVSS
VL: SYVLTQPPSVSGTPGQRVTISCSGGRSNIGSNTVKWYQQLPGTAPKLLIYYNDQRPSGVPDRFSGSKSGTSASLAITGVQAEDEADYYCQSYDRYTHPALLFGTGTKVTVLG

PHA assay IC50 (M) p70:p40 1:0 [7]: 9e-10 M
PHA assay IC50 (M) p70:p40 1:20 [7]: 1e-09 M
PHA assay IC50 (M) p70:p40 1:50 [7]: 1e-09 M
B12: 149-6 (scFv, V domains shown)
VH: QVQLVQSGGGVVQPGRSLRLSCAASGFTFSSYGMHWVRQAPGKGLEWVAFIRYDGSNKYYADSVKGRFTISRDNSKNTLYLQMKSLRAEDTAVYYCTTHGSHDNWGQGTMVTVSS
VL: SYVLTQPPSVSGTPGQRVTISCSGGRSNIVSNTVKWYQQLPGTAPKLLIYGNDQRPSGVPDRFSGSKSGTSASLAITGVQAEDEADYYCQSYDRGFTGSRVFGTGTKVTVLG

IC50 [4]: 0.04 nM
koff [5]: 0.000275 s⁻¹
PHA assay IC50 [6]: 0.14 nM
B13: Y61 (scFv, V domains shown)
VH: QVQLVQSGGGVVQPGRSLRLSCAASGFTFSSYGMHWVRQAPGKGLEWVAFIRYDGSNKYYADSVKGRFTISRDNSKNTLYLQMKSLRAEDTAVYYCKTHGSHDNWGQGTMVTVSS
VL: SYVLTQPPSVSGTPGQRVTISCSGGRSWIGSNTVKWYQQLPGTAPKLLIYGNDQRPSGVPDRFSGSKSGTSASLAITGVQAEDEADYYCQSYDRGTHPALLFGTGTKVTVLG
notes: scFv; also called Y61 scFv

IC50 [4]: 0.03 nM
koff [5]: 0.000226 s⁻¹
PHA assay IC50 [6]: > 10 nM
B14: Y19 (scFv, V domains shown)
VH: QVQLVQSGGGVVQPGRSLRLSCAASGFTFSSYGMHWVRQAPGKGLEWVAFIRYDGSNKYYADSVKGRFTISRDNSKNTLYLQMKSLRAEDTAVYYCKTHGSHDNWGQGTMVTVSS
VL: SYVLTQPPSVSGTPGQRVTISCSGGRSNIGSNTVKWYQQLPGTAPKLLIYGNDQRPSGVPDRFSGSKSGTSASLAITGVQAEDEADYYCQSYDRGHHPAMSFGTGTKVTVLG

PHA assay IC50 (M) p70:p40 1:0 [7]: 6.5e-09 M
PHA assay IC50 (M) p70:p40 1:20 [7]: 7e-09 M
PHA assay IC50 (M) p70:p40 1:50 [7]: 4e-09 M
B15: 149-5 (scFv, V domains shown)
VH: QVQLVQSGGGVVQPGRSLRLSCAASGFTFSSYGMHWVRQAPGKGLEWVAFIRYDGSNKYYADSVKGRFTISRDNSKNTLYLQMKSLRAEDTAVYYCTTHGSHDTWGQGTMVTVSS
VL: SYVLTQPPSVSGTPGQRVTISCSGGRSNIGSNTVKWYQQLPGTAPKLLIYGNDQRPSGVPDRFSGSKSGTSASLAITGVQAEDEADYYCQSYDSSLWGTRVFGTGTKVTVLG

koff [2]: 0.000168 s⁻¹
B16: Y61 H30 S (peptide)
chain: FTFSSYGMH

koff [2]: 0.000178 s⁻¹
B17: Y61 H33 G (peptide)
chain: FTFSSYGMH

koff [2]: 0.000337 s⁻¹
B18: Y61 H32 Y (peptide)
chain: FTFSSYGMH

koff [1]: 0.000204 s⁻¹
B19: Y61 H50 F (peptide)
chain: FIRYDGSNKYYADSVKG
